Blank lines part the entries; values can stand above or below the binder they belong to.
Tests used:
[1] = biological target: karyopherinα (Kapα; importinα1; KPNA2), full-length human (human, UniProt P52292 1-529); assay: MST
[2] = biological target: RanGTP (wild-type Ran loaded with GTP) (UniProt P62826 1-216); assay: MST

Kd [1]: 9.3 ± 2.9 nM
Kd [2]: 1400 ± 400 nM
B1: cellular apoptosis susceptibility protein (CAS), human wild type (natural protein)
chain: MELSDANLQTLTEYLKKTLDPDPAIRRPAEKFLESVEGNQNYPLLLLTLLEKSQDNVIKVCASVTFKNYIKRNWRIVEDEPNKICEADRVAIKANIVHLMLSSPEQIQKQLSDAISIIGREDFPQKWPDLLTEMVNRFQSGDFHVINGVLRTAHSLFKRYRHEFKSNELWTEIKLVLDAFALPLTNLFKATIELCSTHANDASALRILFSSLILISKLFYSLNFQDLPEFFEDNMETWMNNFHTLLTLDNKLLQTDDEEEAGLLELLKSQICDNAALYAQKYDEEFQRYLPRFVTAIWNLLVTTGQEVKYDLLVSNAIQFLASVCERPHYKNLFEDQNTLTSICEKVIVPNMEFRAADEEAFEDNSEEYIRRDLEGSDIDTRRRAACDLVRGLCKFFEGPVTGIFSGYVNSMLQEYAKNPSVNWKHKDAAIYLVTSLASKAQTQKHGITQANELVNLTEFFVNHILPDLKSANVNEFPVLKADGIKYIMIFRNQVPKEHLLVSIPLLINHLQAESIVVHTYAAHALERLFTMRGPNNATLFTAAEIAPFVEILLTNLFKALTLPGSSENEYIMKAIMRSFSLLQEAIIPYIPTLITQLTQKLLAVSKNPSKPHFNHYMFEAICLSIRITCKANPAAVVNFEEALFLVFTEILQNDVQEFIPYVFQVMSLLLETHKNDIPSSYMALFPHLLQPVLWERTGNIPALVRLLQAFLERGSNTIASAAADKIPGLLGVFQKLIASKANDHQGFYLLNSIIEHMPPESVDQYRKQIFILLFQRLQNSKTTKFIKSFLVFINLYCIKYGALALQEIFDGIQPKMFGMVLEKIIIPEIQKVSGNVEKKICAVGITKLLTECPPMMDTEYTKLWTPLLQSLIGLFELPEDDTIPDEEHFIDIEDTPGYQTAFSQLAFAGKKEHDPVGQMVNNPKIHLAQSLHKLSTACPGRVPSMVSTSLNAEALQYLQGYLQAASVTLL

binding result [1]: binds
B2: ∆40NCAS (CAS lacking the first 40 amino acids of the N-terminus) (domain or fragment)
chain: NYPLLLLTLLEKSQDNVIKVCASVTFKNYIKRNWRIVEDEPNKICEADRVAIKANIVHLMLSSPEQIQKQLSDAISIIGREDFPQKWPDLLTEMVNRFQSGDFHVINGVLRTAHSLFKRYRHEFKSNELWTEIKLVLDAFALPLTNLFKATIELCSTHANDASALRILFSSLILISKLFYSLNFQDLPEFFEDNMETWMNNFHTLLTLDNKLLQTDDEEEAGLLELLKSQICDNAALYAQKYDEEFQRYLPRFVTAIWNLLVTTGQEVKYDLLVSNAIQFLASVCERPHYKNLFEDQNTLTSICEKVIVPNMEFRAADEEAFEDNSEEYIRRDLEGSDIDTRRRAACDLVRGLCKFFEGPVTGIFSGYVNSMLQEYAKNPSVNWKHKDAAIYLVTSLASKAQTQKHGITQANELVNLTEFFVNHILPDLKSANVNEFPVLKADGIKYIMIFRNQVPKEHLLVSIPLLINHLQAESIVVHTYAAHALERLFTMRGPNNATLFTAAEIAPFVEILLTNLFKALTLPGSSENEYIMKAIMRSFSLLQEAIIPYIPTLITQLTQKLLAVSKNPSKPHFNHYMFEAICLSIRITCKANPAAVVNFEEALFLVFTEILQNDVQEFIPYVFQVMSLLLETHKNDIPSSYMALFPHLLQPVLWERTGNIPALVRLLQAFLERGSNTIASAAADKIPGLLGVFQKLIASKANDHQGFYLLNSIIEHMPPESVDQYRKQIFILLFQRLQNSKTTKFIKSFLVFINLYCIKYGALALQEIFDGIQPKMFGMVLEKIIIPEIQKVSGNVEKKICAVGITKLLTECPPMMDTEYTKLWTPLLQSLIGLFELPEDDTIPDEEHFIDIEDTPGYQTAFSQLAFAGKKEHDPVGQMVNNPKIHLAQSLHKLSTACPGRVPSMVSTSLNAEALQYLQGYLQAASVTLL

Source: paper PMC10798875 (The Journal of Cell Biology, 2024)
